From EP4755920A1

Biological target: hIL4Rα-ECD(26-232)-mFc (human)
Test: competition ELISA, hIL4R-ECD-mFc captured by anti-mFc, biotinylated human IL4 as competitor

Isotype (antibody)
IC50: 9.95 nM
